Numbering of substitutions follows the chain as printed. Where “and” joins values, the source holds several entries; their conditions need not be identical. Equal values may be shown once.
B1: h2731 (antibody, V domains shown)
VH: EVQLLESGGGLVQPGGSLRLSCAASGFTFSNYGMSWVRQAPGKGLEWVASIRSGSGRTYYSDNVKGRFTISRDNSKNTLYLQMNSLRAEDTAVYYCVRYDHYSGSSDYWGQGTLVTVSS
VL: DVVMTQSPLSLPVTLGEPASISCKSSQSLLDYDGKTYLNWLLQKPGQSPQRLIYRVTNRDTGVPDRFSGSGSGTDFTLKISRVEAEDVGVYYCWQGTHFPRSFGQGTKVEIK
notes: Humanized IgG
B2: h2726 (antibody, V domains shown)
VH: B1 VH
VL: B1 VL with L15P, R55K, T57S, T61S, S102T
notes: Humanized IgG, detected with anti-human IgG
B3: h2831 (antibody, V domains shown)
VH: B1 VH with Y32F, I51V, S105T
VL: B1 VL
notes: Humanized IgG

Key:
Amyloid Beta (Aβ) 1-42 [1] = biological target: T1, Amyloid Beta (Aβ) 1-42 (human); experiment: direct ELISA, antibody titrated on 2.5 ug/ml plate-coated fibril Abeta; the row head of the drawn table reads 'IC50', the note below it says EC50; no unit in the table, x axis 'log ng/ml antibody' [left panel]
T1 construct: The same peptide was used in several aggregation states: fibrils, a heterogeneous aggregate mixture, and soluble oligomers or aggregates; also called Aβ42; Aβ 42
T1 sequence (peptide, as listed by the source): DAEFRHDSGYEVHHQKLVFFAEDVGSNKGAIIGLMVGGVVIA

Amyloid Beta (Aβ) 1-42 [2] = biological target: T1, Amyloid Beta (Aβ) 1-42; experiment: direct ELISA, fibril aBeta plate coat titrated, antibody held constant at 2 ug/ml; no unit in the table, x axis 'log ng/ml Abeta' [right panel]
Amyloid Beta (Aβ) 1-42 [3] = biological target: T1, Amyloid Beta (Aβ) 1-42; experiment: competition ELISA, plate coated with fibril Aβ42, competitor hBP-biotin; IC50 of test divided by IC50 of hBP
Amyloid Beta (Aβ) 1-42 [4] = biological target: T1, Amyloid Beta (Aβ) 1-42; experiment: SPR (BIAcore T200), Aβ1-42 fibrils immobilized on CM5, antibody as analyte, global 1:1 fit
Amyloid Beta (Aβ) 1-42 [5] = biological target: T1, Amyloid Beta (Aβ) 1-42; experiment: direct ELISA on fibrillar Aβ1-42
Amyloid Beta (Aβ) 1-42 [6] = biological target: T1, Amyloid Beta (Aβ) 1-42; experiment: SPR (BIAcore T200), Aβ1-42 fibrils immobilized on CM5, antibody as analyte, global 1:1 fit; apparent KD
Amyloid Beta (Aβ) 1-42 [7] = biological target: T1, Amyloid Beta (Aβ) 1-42; experiment: direct ELISA on plate-coated Aβ42 fibrils (FIG. 21)
Amyloid Beta (Aβ) 1-42 [8] = biological target: T1, Amyloid Beta (Aβ) 1-42; experiment: cell-based or functional assay
Amyloid Beta (Aβ) 1-42 [9] = biological target: T1, Amyloid Beta (Aβ) 1-42; experiment: cell-based or functional assay; remark: listed apart in the source
Amyloid Beta (Aβ) 1-42 [10] = biological target: T1, Amyloid Beta (Aβ) 1-42; experiment: SPR on Aβ1-42 fibrils; this end is tied to h2726 by the KD values of Table 6
Amyloid Beta (Aβ) 1-42 [11] = biological target: T1, Amyloid Beta (Aβ) 1-42; experiment: direct ELISA on plate-coated Aβ42 fibrils (FIG. 21); this end is tied to h2726 by the EC50 values of Table 7
Amyloid Beta (Aβ) 1-42 [12] = biological target: T1, Amyloid Beta (Aβ) 1-42; experiment: direct ELISA on plate-coated Aβ42 fibrils (FIG. 21); this end is tied to h2831 by the EC50 values of Table 7
Amyloid Beta (Aβ) 1-42 [13] = biological target: T1, Amyloid Beta (Aβ) 1-42; experiment: SPR on Aβ1-42 fibrils; this end is tied to h2831 by the KD values of Table 6

Binder | EC50 (Amyloid Beta (Aβ) 1-42 [1]) [µg/mL] | IC50 (half-maximal fibril Abeta coating concentration at constant antibody) (Amyloid Beta (Aβ) 1-42 [2]) [ng/mL] | IC50 ratio (test:hBP) (Amyloid Beta (Aβ) 1-42 [3]) | koff (Amyloid Beta (Aβ) 1-42 [4]) [s⁻¹] | kon (Amyloid Beta (Aβ) 1-42 [4]) [M⁻¹ s⁻¹] | EC50 (Amyloid Beta (Aβ) 1-42 [5]) | Kd (Amyloid Beta (Aβ) 1-42 [6]) [nM] | fold increase in assay signal (OD490) relative to aducanumab (Amyloid Beta (Aβ) 1-42 [7]) [fold] | blockade of binding of soluble Aβ to rat hippocampal synapses at 1:50 molar mAb:Aβ42 ratio (Amyloid Beta (Aβ) 1-42 [8]) [%] | IC50 of Abeta spots per neuron (% Abeta control); the table gives no unit, the x axis is 'mAb (µg/mL)' (Amyloid Beta (Aβ) 1-42 [9]) [µg/mL] | Total Area (under the curve of Abeta spots per neuron, % Abeta control) (Amyloid Beta (Aβ) 1-42 [9]) | fold greater avidity (apparent KD) than aducanumab (Amyloid Beta (Aβ) 1-42 [10]) [fold] | fold lower estimated EC50 relative to aducanumab (Amyloid Beta (Aβ) 1-42 [11]) [fold] | fold lower estimated EC50 relative to aducanumab (Amyloid Beta (Aβ) 1-42 [12]) [fold] | fold greater avidity (apparent KD) than aducanumab (Amyloid Beta (Aβ) 1-42 [13]) [fold]
B1 | 0.0387 | 440 | 0.61 | 2.62e-05 | 372000 | 0.0081 µg/mL and 0.054 nM | 0.0704 | 3 | > 90 | 0.47 | 7520 | – | – | – | –
B2 | 0.0403 | 387 | 0.68 | 2.12e-05 | 393000 | – | 0.054 | 3 | – | 1.67 | 9070 | 5 to 11 | 15 to 20 | – | –
B3 | 0.0462 | 412 | 0.77 | 2.94e-05 | 265000 | – | 0.111 | 3 | – | 0.924 | 6500 | – | – | 15 to 20 | 5 to 11

Source: patent publication US20250179161A1 (OTHAIR PROTHENA, published 2025)
